Reference: US9555076B2, “Neuregulin based methods and compositions for treating cardiovascular diseases” (Zensun (Shanghai) Science & Technology, Co., Ltd., priority 2002, dated 2017)

Assays:
[1] = Acute toxicity experiment, intravenous injection; format: in vivo
[2] = tested on: acute myocardial injury caused by viral (Coxsackie B3) infection in mice; test: Myocardial pathologic score, mice infected with Coxsackie B3 virus; format: in vivo, BALB/C mice; parameters: key: 0-4 score: 0 = 0%, 1 = 25%, 2 = 50%, 3 = 75%, 4 = 100% lesion area
Procedure: The survived mice were killed through dislocating the cervical spine, aseptic thoracotomy was performed and the heart extirpated, heart weight measured and put the myocardium into formaldehyde for fixation, embedded in paraffin, consecutive section made and pathologic examination performed, observed inflammatory cells infiltration of the myocardium, degeneration and necrosis. Based on the Principle of New Drug Evaluation Guideline, pathologic scoring criteria was defined as follow: • Score 0: lesion area accounting for 0%; • Score 1: lesion area accounting for 25%; • Score 2: lesion area accounting for 50%; • Score 3: lesion area accounting for 75%; • Score 4: lesion area accounting for 100%; • Scoring could be performed between score 1 and score 2 or between score 2 and score 3, e.g. when lesion area was 80% was scored as score 3.2, 7.3.3.4 Observation On Survival Of Mice

[3] = tested on: congestive heart failure caused by inferior vena cava constriction in dog; test: Echocardiography (EF, FS, CO), inferior vena cava constriction (TIVCC) dog; format: in vivo, crossbred dog
Procedure: […] dosage level of 1, 3 and 10 μg/kg respectively of rhNRG-1 β was diluted with preparation buffer solution (vehicle) to needed concentration, intravenous injection once everyday for consecutive 5 days.
3% pentobarbital sodium (30 mg/kg) was injected into the peripheral vein to anesthetize the dog, then trachea intubated. […] Bred for 1 week, echocardiography performed according to the amount of ascites, when EF reduced by about 20% or dilatation of the left heart by about 20%, stable low cardiac output congestive heart failure animal model was established. Then intravenous injection of the drug was carried out for consecutive 5 days.
• Heart function index determination was carried out under anesthesia of the dog prior to the operation, prior to and 5-day after the drug administration. Major index included: • EF (Ejection Fraction): heart ejection fraction, i.e., ratio of difference between end diastolic volume of the ventricle (EDV) and end systolic volume of ventricle (ESV) and end diastolic volume of ventricle, being general index used for reflecting pumping function of ventricle; especially reflecting the systolic function; • FS: ventricular short axis shortening rate, being index reflecting contraction function of ventricle, • CO: cardiac output, i.e. blood volume ejected by the heart per minute. 6.3.3.2 Hemodynamic Index Determination

[4] = tested on: toxic myocarditis caused by Adriamycin in rat; test: Heart size (heart weight/body weight, wall thickness), Adriamycin rat model; format: in vivo, SD rat; conditions: Adriamycin model
Procedure: Heart was extirpated after thoracotomy (auricle should be reserved), the heart weight was measured after dried with absorbent paper, ratio of heart weight/body weight calculated; outer diameter of the heart was measured at ½ site of the vertically standing heart; medium part of the left ventricle was crosswise cut open, maximal thickness of free wall of the left ventricle measured; the heart was fixed with 10% formaldehyde, paraffin embedded and HE stained, observation of the myocardial structure carried out under optic microscope, give out pathologic score.

[5] = tested on: heart failure in rat caused by ligation of coronary artery; test: Capillary counting in myocardial fibrotic area (HE, image analysis); format: in vivo, SD rat
Source text: After fixed with 10% formaldehyde, myocardium of the rat was longitudinally cut with equal distance into 3 slices, conventionally embedded with paraffin, section made, HE stained, image analysis for area of fibrotic region of the heart, counted the number of capillary in the fibrotic lesion (counting unit: piece/mm^2); Nagar-Oslen stained, studied the size of ischemic hypoxic region in the myocardium.

[6] = tested on: heart failure in rat caused by ligation of coronary artery; test: Echocardiography heart function, heart failure by ligation of coronary artery; format: in vivo, SD rat
[7] = 1 μg/kg group, prior to drug administration
[8] = 1 μg/kg iv daily 5 days, after drug administration
[9] = 3 μg/kg group, prior to drug administration
[10] = 3 μg/kg iv daily 5 days, after drug administration
[11] = 10 μg/kg group, prior to drug administration
[12] = 10 μg/kg iv daily 5 days, after drug administration

B1: rhNRG-1 β: Recombinant human neuregulin fragment of 61 amino acid (SEQ ID NO:4), 3 disulfide bonds, expressed in E. coli (protein, listed as Homo sapiens)
chain: SHLVKCAEKEKTFCVNGGECFMVKDLSNPSRYLCKCPNEFTGDRCQNYVMASFYKAEELYQ
modifications: disulfide (positions not given here)
Q: For B1, which “MTD of acute toxicity experiment” value [1] is on record?
A: The value was 35 mg/kg.

Q: And the “Pathologic score Mean ± SD” value ([2]; 7.5 μg/kg iv qd × 5, (I))?
A: The value was 1.52 ± 0.74.

Q: What about the “Pathologic score Mean ± SD” value ([2]; 7.5 μg/kg iv qd × 5, (II)) of the same molecule?
A: Its value is 1.34 ± 1.16.

Q: What about the “Pathologic score Mean ± SD” value ([2]; 15 μg/kg iv qd × 5, (I)) of the same molecule?
A: The value was 0.73±0.58.

Q: And the “Pathologic score Mean ± SD” value ([2]; 15 μg/kg iv qd × 5, (I), listed as rhNRG-1β)?
A: Its value is 0.73 ± 0.58.

Q: And the “Pathologic score Mean ± SD” value ([2]; 15 μg/kg iv qd × 5, (II))?
A: The value was 0.57 ± 0.58.

Q: And the “Pathologic score Mean ± SD” value ([2]; 30 μg/kg iv qd × 3, (I))?
A: The value was 0.33±0.155.

Q: And the “Pathologic score Mean ± SD” value ([2]; 30 μg/kg iv qd × 3, (I), listed as rhNRG-1β)?
A: Its value is 0.33 ± 0.155.

Q: And the “Pathologic score Mean ± SD” value ([2]; 30 μg/kg iv qd × 3, (II))?
A: The value was 0.55 ± 0.476.

Q: What about the “Pathologic score Mean ± SD” value ([2]; 30 μg/kg iv qd × 5, (I)) of the same molecule?
A: Its value is 0.56±0.47.

Q: And the “Pathologic score Mean ± SD” value ([2]; 30 μg/kg iv qd × 5, (I), listed as rhNRG-1β)?
A: The value was 0.56 ± 0.47.

Q: And the “Pathologic score Mean ± SD” value ([2]; 30 μg/kg iv qd × 5, (II))?
A: Its value is 0.23 ± 0.26.

Q: What about the “Pathologic score Mean ± SD” value ([2]; 30 μg/kg iv qd × 5, Example 5 (I)) of the same molecule?
A: Its value is 0.11±0.14.

Q: What about the “Pathologic score Mean ± SD” value ([2]; 30 μg/kg iv qd × 5, Example 5 (I), listed as rhNRG-1β) of the same molecule?
A: The value was 0.11 ± 0.140.

Q: What about the “Pathologic score Mean ± SD” value ([2]; 30 μg/kg iv qd × 5, Example 5 (II)) of the same molecule?
A: Its value is 0.17 ± 0.157.

Q: And the “Pathologic score Mean ± SD” value ([2]; 30 μg/kg iv qd × 7, (I))?
A: The value was 0.13±0.13.

Q: And the “Pathologic score Mean ± SD” value ([2]; 30 μg/kg iv qd × 7, (I), listed as rhNRG-1β)?
A: The value was 0.13 ± 0.132.

Q: What about the “Pathologic score Mean ± SD” value ([2]; 30 μg/kg iv qd × 7, (II)) of the same molecule?
A: Its value is 0.19 ± 0.168.

Q: And the CO ([3]; 1 μg/kg group, preoperation)?
A: The CO was 4.2 ± 0.6 L/min.

Q: And the EF ([3]; 1 μg/kg group, preoperation)?
A: Its EF is 82.8 ± 3.0%.

Q: And the FS ([3]; 1 μg/kg group, preoperation)?
A: The FS was 50.8 ± 4.0%.

Q: What about the CO [3, 7] of the same molecule?
A: The CO was 2.4 ± 0.5 L/min.

Q: And the EF [3, 7]?
A: The EF was 57.7±10.9%.

Q: And the FS [3, 7]?
A: The FS was 30.6±8.0%.

Q: And the CO ([3]; 1 μg/kg group, prior to drug administration, listed as rhNRG-1β)?
A: The CO was 2.4 ± 0.5 L/min.

Q: What about the CO [3, 8] of the same molecule?
A: The CO was 3.7 ± 0.8 L/min.

Q: And the EF [3, 8]?
A: Its EF is 70.4±8.4%.

Q: And the FS [3, 8]?
A: The FS was 39.7±5.7%.

Q: What about the CO ([3]; 1 μg/kg iv daily 5 days, after drug administration, listed as rhNRG-1β) of the same molecule?
A: Its CO is 3.7 ± 0.8 L/min.

Q: What about the CO ([3]; 3 μg/kg group, preoperation) of the same molecule?
A: The CO was 4.3 ± 0.8 L/min.

Q: What about the EF ([3]; 3 μg/kg group, preoperation) of the same molecule?
A: Its EF is 84.7 ± 2.8%.

Q: And the FS ([3]; 3 μg/kg group, preoperation)?
A: Its FS is 51.7 ± 2.9%.

Q: What about the CO [3, 9] of the same molecule?
A: Its CO is 2.1 ± 0.7 L/min.

Q: What about the EF [3, 9] of the same molecule?
A: Its EF is 58.0 ± 8.3%.

Q: And the FS [3, 9]?
A: Its FS is 29.9 ± 6.4%.

Q: What about the CO [3, 10] of the same molecule?
A: Its CO is 4.0 ± 0.9 L/min.

Q: And the EF [3, 10]?
A: The EF was 74.7 ± 4.6 %.

Q: What about the FS [3, 10] of the same molecule?
A: The FS was 42.4 ± 4.4 %.

Q: What about the CO ([3]; 10 μg/kg group, preoperation) of the same molecule?
A: The CO was 4.3 ± 0.6 L/min.

Q: What about the EF ([3]; 10 μg/kg group, preoperation) of the same molecule?
A: The EF was 82.9 ± 2.6%.

Q: What about the FS ([3]; 10 μg/kg group, preoperation) of the same molecule?
A: The FS was 50.5 ± 3.3%.

Q: What about the CO [3, 11] of the same molecule?
A: The CO was 1.9 ± 0.3 L/min.

Q: And the EF [3, 11]?
A: The EF was 55.8 ± 10.0%.

Q: What about the FS [3, 11] of the same molecule?
A: The FS was 27.7 ± 5.6%.

Q: And the CO [3, 12]?
A: Its CO is 3.6 ± 0.7 L/min.

Q: And the EF [3, 12]?
A: Its EF is 74.7 ± 3.2 %.

Q: What about the FS [3, 12] of the same molecule?
A: Its FS is 41.5 ± 3.1 %.

Q: And the “effect on heart rate” value ([3]; 1, 3 and 10 μg/kg iv daily 5 days)?
A: Its value is “less effect on heart rate”.

Q: And the Heart weight/body weight ([4]; 10 μg/kg iv qd × 10 d, (I))?
A: The Heart weight/body weight was 0.00301 ± 0.0002.

Q: And the “Left ventricle wall thickness” value ([4]; 10 μg/kg iv qd × 10 d, (I))?
A: The value was 1.773 ± 0.115 mm.

Q: And the Heart weight/body weight ([4]; 10 μg/kg iv qd × 10 d, (II))?
A: Its Heart weight/body weight is 0.00307 ± 0.000.

Q: What about the “Left ventricular wall thickness” value ([4]; 10 μg/kg iv qd × 10 d, (II)) of the same molecule?
A: Its value is 2.18 ± 0.21 mm.

Q: What about the Heart weight/body weight ([4]; 20 μg/kg iv qd × 10 d, (I)) of the same molecule?
A: The Heart weight/body weight was 0.0032 ± 0.0001.

Q: What about the “Left ventricle wall thickness” value ([4]; 20 μg/kg iv qd × 10 d, (I)) of the same molecule?
A: Its value is 1.789 ± 0.133 mm.

Q: And the Heart weight/body weight ([4]; 20 μg/kg iv qd × 10 d, (II))?
A: Its Heart weight/body weight is 0.00303 ± 0.000.

Q: And the “Left ventricular wall thickness” value ([4]; 20 μg/kg iv qd × 10 d, (II))?
A: The value was 2.15 ± 0.24 mm.

Q: And the Heart weight/body weight ([4]; 40 μg/kg iv qd × 10, (II))?
A: Its Heart weight/body weight is 0.00297 ± 0.000.

Q: And the “Left ventricular wall thickness” value ([4]; 40 μg/kg iv qd × 10, (II))?
A: Its value is 2.06 ± 0.2 mm.

Q: And the Heart weight/body weight ([4]; 40 μg/kg iv qd × 10 d, (I))?
A: Its Heart weight/body weight is 0.0031 ± 0.0002.

Q: What about the “Left ventricle wall thickness” value ([4]; 40 μg/kg iv qd × 10 d, (I)) of the same molecule?
A: Its value is 1.813 ± 0.12 mm.

Q: And the “Capillary counting (I)” value ([5]; 5 μg/kg iv qd x 10)?
A: Its value is 9.35 ± 4.2 piece/mm^2.

Q: And the “Capillary counting (II)” value ([5]; 5 μg/kg iv qd x 10)?
A: Its value is 15.0 ± 6.9 piece/mm^2.

Q: What about the “Capillary counting (I)” value ([5]; 10 μg/kg iv qd x 10) of the same molecule?
A: The value was 8.99 ± 3.3 piece/mm^2.

Q: What about the “Capillary counting (II)” value ([5]; 10 μg/kg iv qd x 10) of the same molecule?
A: The value was 19.6 ± 8.5 piece/mm^2.

Q: What about the “Capillary counting (I)” value ([5]; 20 μg/kg iv qd x 10) of the same molecule?
A: The value was 10.12 ± 3.0 piece/mm^2.

Q: What about the “Capillary counting (II)” value ([5]; 20 μg/kg iv qd x 10) of the same molecule?
A: Its value is 24.6 ± 9.5 piece/mm^2.

Q: And the EF value ([6]; 5 μg/kg, after ligation prior to drug administration, long-term monitoring)?
A: The EF value was 53.1 ± 12.8%.

Q: And the “time the changes of ejection fraction maintain after the drug administration” value ([6]; 20 μg/kg)?
A: The value was “about 35 days”.

Q: And the EF value ([6]; 20 μg/kg, 5-day after drug administration and 35-day after drug withdrawal)?
A: Its EF value is 73.0 ± 20.3 %.
